According to patent publication US20190218553, “VON WILLEBRAND FACTOR (VWF)-TARGETING AGENTS AND METHODS OF USING THE SAME” (DUKE UNIVERSITY, published 2019):

Columns and labels:
[1] = target: T1, von Willebrand factor (VWF) (Homo sapiens, UniProt P04275 P04275:764-2813); assay: filter; Bmax 62%; 2 mM CaCl2, 37 C; conditions: tags: factor VIII free, Haematologic Technologies Inc; label: 5'-32P
Description: (§1) Affinity constants (Kd values) were determined using double-filter nitrocellulose filter binding assays (Rusconi et al, Thromb. Haemost. $4:841-848 (2000)). All binding studies were performed in binding buffer F (20 mM HEPES, pH 7.4, 150 mM NaCl, 2 mM CaCl₂, and 0.01% BSA) at 37° C. Human purified VWF (factor VIII free) was purchased from Haematologic Technologies Inc. (Essex Junction, Vt.) and used in the double-filter nitrocellulose filter binding assay to determine the Kd of the aptamers. Briefly, RNA were end-labeled at the 5′ end with T4 polynucleotide kinase (New England Biolabs, Beverly, Mass.) and [γ³²P] ATP (Amersham Pharmacia Biotech, Piscataway, N.J.) (Fitzwater and Polisky, Methods Enzymol. 267:275-301 (1996)). End-labeled RNA was diluted in binding buffer F, heat denatured at 65° C. for 5 minutes, and subsequently equilibrated at 37° C. Direct binding was performed by incubating trace ³²P-RNA with varying concentrations of VWF protein in binding buffer F at 37° C. for 5 min. The fraction of the nucleic acid-protein complex which bound to the nitrocellulose membrane was quantified with a phosphorimager (Molecular Dynamics, Sunnyvale, Calif.). Non-specific binding of the radiolabeled nucleic acid was subtracted out of the binding such that only specific binding remained (Wong and Lohman, Proc. Natl. Acad. Sci. USA 90:5428-5432 (1993)).

[2] = target: T1, von Willebrand factor (VWF); assay: filter; Bmax 59%; 2 mM CaCl2, 37 C; conditions: tags: factor VIII free, Haematologic Technologies Inc; label: 5'-32P
Description: as §1

[3] = target: T1, von Willebrand factor (VWF); assay: filter; Bmax 55%; 2 mM CaCl2, 37 C; conditions: tags: factor VIII free, Haematologic Technologies Inc; label: 5'-32P
Description: as §1

[4] = target: T1, von Willebrand factor (VWF); assay: filter; Bmax 49%; 2 mM CaCl2, 37 C; conditions: tags: factor VIII free, Haematologic Technologies Inc; label: 5'-32P
Description: as §1

[5] = target: T1, von Willebrand factor (VWF); assay: filter; Bmax 83%; 2 mM CaCl2, 37 C; conditions: Haematologic Technologies Inc, label: 5'-32P
Description: as §1

[6] = target: T1, von Willebrand factor (VWF); assay: filter; Bmax 66%; 2 mM CaCl2, 37 C; conditions: tags: factor VIII free, Haematologic Technologies Inc; label: 5'-32P
Description: as §1

[7] = target: T1, von Willebrand factor (VWF); assay: filter; Bmax 13%; 2 mM CaCl2, 37 C; conditions: tags: factor VIII free, Haematologic Technologies Inc; label: 5'-32P
Description: as §1

[8] = target: T1, von Willebrand factor (VWF); assay: filter; Bmax 10%; 2 mM CaCl2, 37 C; conditions: tags: factor VIII free, Haematologic Technologies Inc; label: 5'-32P
Description: as §1

[9] = target: T1, von Willebrand factor (VWF); assay: filter; Bmax 72%; 2 mM CaCl2, 37 C; conditions: tags: factor VIII free, Haematologic Technologies Inc; label: 5'-32P
Description: as §1

[10] = target: T1, von Willebrand factor (VWF); assay: filter; Bmax 75%; 2 mM CaCl2, 37 C; conditions: tags: factor VIII free, Haematologic Technologies Inc; label: 5'-32P
Description: as §1

[11] = target: T1, von Willebrand factor (VWF); assay: filter; Bmax 60%; 2 mM CaCl2, 37 C; conditions: tags: factor VIII free, Haematologic Technologies Inc; label: 5'-32P
Description: as §1

[12] = target: T1, von Willebrand factor (VWF); assay: filter; Bmax 71%; 2 mM CaCl2, 37 C; conditions: Haematologic Technologies Inc, label: 5'-32P
Description: as §1

[13] = tags: factor VIII free human purified VWF

B1: T25 vrt21 (ssRNA)
RNA: ACGAACUGCCCUCAGCUACUUUCAUGUUGCUGACGCACAGACGU
modifications: rAfCrGrArAfCfUrGfCfCfCmUfCrArGfCfUrAfCfUfUfUfCrAfUrGfUfUrGfCfUrGmAfCrGfCrAfCrArGrAfCrGfU-idT
With B1 as the binder, how does the Kd [1] read?
The Kd was 17 nM.

B2: T25 vrt12 (ssRNA)
RNA: ACGAACUGCCCUCAGCUACUUUCAUGUUGCUGACGCACAGACGU
modifications: rAfCrGrArAfCfUrGfCfCfCfUfCrArGfCfUrAmCmUmUmUmCmAmUmGfUfUrGfCfUrGrAfCrGfCrAfCrArGrAfCrGfU-idT
Which Kd [2] does the source give for B2 here?
Its Kd is 7.1 nM.

Which Kd [3] does the source give for ACGAACUGCCCUCGCACUUUCAUGUGCGACGCACAGACGU (ssRNA, 2'-F C and U; 2'-OH A and G; 3' idT) [T38] here?
The Kd was 9.6 nM.

Which Kd [4] does the source give for ACGAACUGCCCUCAGCACUUAUGUGCUGACGCACAGACGU (ssRNA, 2'-F C and U; 2'-OH A and G; 3' idT) [T41] here?
The Kd was 8.6 nM.

How did the Kd [5, 13] turn out when ACGAACUGCCCUCGAUCGACGCACAGACGU (ssRNA, 2'-F U7,C9,C10,C11,U12,C20,C22,U30; ribo A19,G21; rest 2'-OMe; 3' idT) [T59 vrt24] was run?
Its Kd is 2.4 nM.

How did the Kd [6] turn out when ACGAACUGCCCUCAGUACUUUCAUGUUCUGACGCACAGACGU (ssRNA, 2'-F C and U; 2'-OH A and G; 3' idT) [T35] was run?
The Kd was 12 nM.

How did the Kd [6] turn out when ACGAACUGCCCUCAGCACUUUCAUGUGCUGACGCACAGACGU (ssRNA, 2'-F C and U; 2'-OH A and G; 3' idT) [T33] was run?
Its Kd is 15 nM.

B3: T15 (ssRNA)
RNA: GGGAGGUGGACGAACUGCCCUCAGCUACCAUGUUGCUGACGCACAGACGACUCGCUG
modifications: 2'-F C and U; 2'-OH A and G
How did the Kd [7] turn out when B3 was run?
The Kd was 83 nM.

AAAAACGAACUGCCCUCGAUCGACGCACAGACGU (ssRNA, 2'-F C and U; 2'-OH A and G; 3' idT) [T77] was tested. Which Kd [2] did it give?
The Kd was 8.8 nM.

How did the Kd [8] turn out when GGGAGGUCAGCUACUUUCAUGUUGCUGACGCACAGACGACUCGCUG (ssRNA, 2'-F C and U; 2'-OH A and G) [T21] was run?
The Kd was 26 nM.

ACGAACUGCCCUCGAUCGACGCACAGACGU (ssRNA, mAmCmGmAmAmCmUrGfCfCfCmUmCmGmAmUmCmGmAfCrGfCmAmCmAmGmAmCmGfU-idT) [T59 vrt18] was tested. Which Kd ([5]; tags: factor VIII free) did it give?
The Kd was 5.7 nM.

How did the Kd [9] turn out when ACGAACUGCCCUCGUAAGACGCACAGACGU (ssRNA, mAmCmGmAmAmCmUmGfCfCfCmUmCmGmUmAmAmGmAfCrGfCmAmCmAmGmAmCmGfUidT) [DTRI-011] was run?
The Kd was 3.8 nM.

ACGAACUGCCCUCGAUCGACGCACAGACGUUUUUU (ssRNA, mAmCmGmAmAmCmUmGfCfCfCmUmCmGmAmUmCmGmAfCrGfCmAmCmAmGmAmCmGmUmUmUmUmUmU-idT) [T79 vrt4] was tested. Which Kd [10] did it give?
The Kd was 13 nM.

ACGAACUGCCCUCGUAAGACGCACAGACGUUUUUU (ssRNA, mAmCmGmAmAmCmUmGfCfCfCmUmCmGmUmAmAmGmAfCfGfCmAmCmAmGmAmCmGmUmUmUmUmUmUidT) [DTRI-034] was tested. Which Kd [11] did it give?
Its Kd is 2.8 nM.

With CCCAAAACGAACUGCCCUCGAUCGACGCACAGACGU (ssRNA, 2'-F C and U; 2'-OH A and G; 3' idT) [T78] as the binder, how does the Kd [3] read?
Its Kd is 6.6 nM.

Which Kd ([12]; tags: factor VIII free) does the source give for ACGAACUGCCCUCGAUUUCGACGCACAGACGU (ssRNA, 2'-F C and U; 2'-OH A and G; 3' idT) [T60] here?
Its Kd is 12.5 nM.

With ACGAACUGCCCUCUUUUUUGACGCACAGACGU (ssRNA, 2'-F C9,C10,C11,C22,G23,C24; rest 2'-OMe; 3' idT) [T94 vrt7] as the binder, how does the Kd [12, 13] read?
The Kd was 29 nM.

B4: T16 (ssRNA)
RNA: GGGAGGUGGACGAACUGCCCUCAGCUACGUUGCUGACGCACAGACGACUCGCUG
modifications: 2'-F C and U; 2'-OH A and G
Which Kd [7] does the source give for B4 here?
Its Kd is 126 nM.

Which Kd [7] does the source give for ACGAACUGCCCUAUUAUUACGCACAGACGU (ssRNA, 2'-F C and U; 2'-OH A and G; 3' idT) [T64] here?
Its Kd is 54 nM.

For ACGAACUGCCCUCGAUCGACGCACAGACGU (ssRNA, rAfCrGmAmAmCfUmGfCfCfCfUmCmGmAmUmCmGrAfCmGfCmAmCmAmGmAfCrGfU-idT) [T59 vrt3], which Kd [4] is on record?
The Kd was 288 nM.
